{
  "source": "the nanobody polyreactivity screen of Harvey et al. (2022)",
  "data": [
    {"assay": "yeast display, Sf9 membrane polyspecificity reagent, FACS + sequencing; frameworks hold sequencing errors", "in_short": "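Genes from sorted yeast were amplified by colony PCR, read by MiSeq 2 × 250 sequencing and filtered on CDR length. These cells carried a synthetic nanobody library in Saccharomyces cerevisiae BJ5465 and were sorted by FACS into low and high (top ~1%) gates on anti-HA and streptavidin fluorescence. Polyreactivity is labelled according to the gate of origin.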", "values": [
      {"sequence": "QVQLVESGGGLVQAGGSLRLSCAASGNTFYHYAMGWYRQAPVKERELVAGIRYNGGSTYYADSVKGRFTISRDNAKNTVYLQMISLKPEDTAVYYCATRGRTAWYTMDYWGQGTQVTVSS", "polyreactivity (PSR sort gate)": "high polyreactivity"},
      {"sequence": "QVQLVESGGGLVQAGGSLRLSCAASGNTFYLYAMGWYRQAPGKEREFVAAITGNGGSTYYADSVKGRFTISRDNAKNTVYLQMNSLKPEDTEVYYCAATFWGYNQYDYWGQGTQVTVSS", "polyreactivity (PSR sort gate)": "high polyreactivity"},
      {"sequence": "QVQLVESGGGLVQAGGSLRLSCAASGNTFYRNAMGWYRQAPGKDRELVAAIDYGGSTTYYADSVKGRFTISRDNSKNTVYLQMNSLKPEDTAVYYCAAREYRIGHVQPMDYWGQGTQVTVSS", "polyreactivity (PSR sort gate)": "high polyreactivity"},
      {"sequence": "QVQLVESGGGLVQAGGSLRLSCAASGNTFYVKVMGWSRQAPGKERELVARITTSGGSTSYAESVKGRFTISRDNAKNTVSFQMNSMKPEDTAVYYCAASYHAFQNWEYDYWGQGTQVTVSS", "polyreactivity (PSR sort gate)": "low polyreactivity"},
      {"sequence": "QVQLVESGGGLVQAGGSLRLSCAASGNTIDRYDMGWYRQPPGKEREFVAAITASAGSTYADSVKGRFTISRDNAKNTVYLQMNSLKPEDSAVYYCNAGNSSTGVDRYDYWGQGTQVTVSS", "polyreactivity (PSR sort gate)": "low polyreactivity"},
      {"sequence": "QVQLVESGGGLVQAGGSLRLSCAASGNTIDSYGMGWYRQAPGKERELVAAISTSGGSTYYADSVKGRFTISRDNAKNTVYLQMNSLKPEDTAVYYCNATWTMTYDYWGQGTQVTVSS", "polyreactivity (PSR sort gate)": "low polyreactivity"},
      {"sequence": "QVQLVESGGGLVQAGGSLRLSCAASGNTIGKYAMGWYRQAPGKETELVATITRRGGSTYYADSVKGRFTISRDNAKNTVYLQMNSLKPEDTAVYYCNRAVTYGTYDYWGQGTQVTVSS", "polyreactivity (PSR sort gate)": "high polyreactivity"},
      {"sequence": "QVQLVESGGGLVQAGGSLRLSCAASGNTLDWYAMGGSRQAPGKERELVAAISSAGSTSYADSVKGRFTISRDNAKNTVYLQMNSLKPEDTAVYYCNVDVYSKDANFQSFASEYDYWGQGTQVTVSS", "polyreactivity (PSR sort gate)": "low polyreactivity"},
      {"sequence": "QVQLVESGGGLVQAGGSLRLSCAASGNTLGYYAMGWYRPAPGKERELVATISDDGTTYYADSVKGRFTISRDNAKNTVSLQMNSLKPEDTAVYYCATDGSAQYSMDYWGQGTQVTVSS", "polyreactivity (PSR sort gate)": "low polyreactivity"},
      {"sequence": "QVQLVESGGGLVQAGGSLRLSCAASGNTLRYNVMGWYRQAPGKERELVAAISGGGSTSYTDSVKGRLTISRDNAKNTVYLQMNSLKPEDTAVYYCATRSFVGGRGRDSDYWGQGTQVTVSS", "polyreactivity (PSR sort gate)": "low polyreactivity"},
      {"sequence": "QVQLVESGGGLVQAGGSLRLSCAASGNTLSFYTMGWYRQAPGKERELVAAISSDGTTYYADSVKGRFTISRDNAKNTVYLQMNSLKPEDTAVYYCAKAHYEWIWTRYDYWGQGTQVTVSS", "polyreactivity (PSR sort gate)": "low polyreactivity"},
      {"sequence": "QVQLVESGGGLVQAGGSLRLSCAASGNTLVYYAMGWYRQAPGKERELVADISSSGGITYYADSVKGRFTISRDNAKNTVYLLMNSLKPVDTAVYYCAVDYPLYYWYLYNYWGQGTQVTVSS", "polyreactivity (PSR sort gate)": "low polyreactivity"},
      {"sequence": "QVQLVESGGGLVQAGGSLRLSCAASGNTLYTNAMGWYRQAPGKERELVAVISRGGSTYYADSVKGRFTISRDNAKNTVYLQMNSLKPEDTAVYYCATYGSSWSRAYGYWGQGTQVTVSS", "polyreactivity (PSR sort gate)": "high polyreactivity"},
      {"sequence": "QVQLVESGGGLVQAGGSLRLSCAASGNTVWYNAMGWFIQAPGKETELVAAISYSGGGTYYAVSVKGRFTISREKAKNTVYLQMNCLKPDDSAVYYCSADTLQRAFVLYDYWGQGTQVTVSS", "polyreactivity (PSR sort gate)": "low polyreactivity"},
      {"sequence": "QVQLVESGGGLVQAGGSLRLSCAASGNTVYYYGMGWYRQAPGKERDLVAAINYSGGSTYYADSVKGRNTISRDNAKNTVYLPMNSKKPEVTAVYYCNADYVPAYRDLASLADGYYWGQGTQVTVSS", "polyreactivity (PSR sort gate)": "low polyreactivity"},
      {"sequence": "QVQLVESGGGLVQAGGSLRLSCAASGNTYSYNAMGWYRQAPGKEREFVASISRRGGRTNYADSVKGRFTISRDNAKNTVYLQMNSLKPEDTAVYYCAATTVPLGDYWGQVTQVTVSS", "polyreactivity (PSR sort gate)": "high polyreactivity"},
      {"sequence": "QVQLVESGGGLVQAGGSLRLSCAASGPIYTYAMGWYRHAPGKERELVAAISRRGGSTYYADSVKGRFTISRDNAKNTVYLQMNSLKPEDTAVYYCAKERSFGDGNFDYEYWGQGTQVTVSS", "polyreactivity (PSR sort gate)": "high polyreactivity"},
      {"sequence": "QVQLVESGGGLVQAGGSLRLSCAASGPNFTKYAMGWYRPAPGKERELVAGISSRGTSTYYADSVKGRFTISRDNAKNTVYLQMNSLKPEDTAVYYCNKDSKSRFTYDYWGQGTQVTVSS", "polyreactivity (PSR sort gate)": "high polyreactivity"},
      {"sequence": "QVQLVESGGGLVQAGGSLRLSCAASGPTFNRYTMGWYRQAPGKERELVATITGGGSTNYADSVKGRFTISRDNAKNTVYLQMNSLKPEDTAVYYCARAVVQSRGPPRYKTPYDYWGQGTQVTVSS", "polyreactivity (PSR sort gate)": "low polyreactivity"},
      {"sequence": "QVQLVESGGGLVQAGGSLRLSCAASGQIFVRNAMGWYRQAPGKERELVARISSGGSTNYADSVKGRFTISRDNAKNTVYLQMISLKPEDTAVYYCAARVYKGWPTHYDYWGQGTQVTVSS", "polyreactivity (PSR sort gate)": "high polyreactivity"},
      {"sequence": "QVQLVESGGGLVQAGGSLRLSCAASGRAFYGNAMGWYRPAPGKERELVASISQRGGSTYYADSVKGRFTISRDTAKNTVYLQMNSLKPEDTAVYYCAARRKGYSTGLGHRISYDYWGQGTQVTVSS", "polyreactivity (PSR sort gate)": "high polyreactivity"},
      {"sequence": "QVQLVESGGGLVQAGGSLRLSCAASGRFLVLNAMGWYRQAPAKERELVADLTSVGSTYYADSVKGRFTISRDNAKNTVDLQMNSLKPEDTAVYYFAADWNTYPDYQQSYFVSYEYNYWGQGTQVTVSS", "polyreactivity (PSR sort gate)": "low polyreactivity"},
      {"sequence": "QVQLVESGGGLVQAGGSLRLSCAASGRICPKKGMGWYRQAPWKERELVAAITSGTSTYYADSVKGRFTISRDNAKNTVYLQMNSLKPEDTAVYYCNAVHARYRCQGDYWGQGTQVTVSS", "polyreactivity (PSR sort gate)": "low polyreactivity"},
      {"sequence": "QVQLVESGGGLVQAGGSLRLSCAASGRICVYYAMGWYRQAPGKEREFVAAISWSGGSTYYADSVKGRFTISRDNAKNTVYLQMNSLKPEDTAVYYCAADVPWTVYYRWYDYWGQGTLVTVSS", "polyreactivity (PSR sort gate)": "low polyreactivity"},
      {"sequence": "QVQLVESGGGLVQAGGSLRLSCAASGRIDAYTMGWYRQAPGKERELVAAISTSTSNTYYADSVKGRFTISRDNAKNTVYLQMNSLKPEDTAVYYCDEAYYSPWWGYYWGQGTQVTVSS", "polyreactivity (PSR sort gate)": "low polyreactivity"},
      {"sequence": "QVQLVESGGGLVQAGGSLRLSCAASGRIDHNAMDWYRQAPGKERELVAAITWSGGGTYYADSVKGRFTISRDNAKNTVYLQMNSLKPEDTAVYYCNVRRAFSGWRGYDYWGQGTQVTVSS", "polyreactivity (PSR sort gate)": "high polyreactivity"},
      {"sequence": "QVQLVESGGGLVQAGGSLRLSCAASGRIDLYNDMGWYRQAPGKERELVAAITWRSGSTYYADSVKGRFTFSRDNAKNTFYCQMNSLNPEDTAVYYCAKRGSGYKQDFKSYSGHYWGHGTQVTVSS", "polyreactivity (PSR sort gate)": "high polyreactivity"},
      {"sequence": "QVQLVESGGGLVQAGGSLRLSCAASGRIFAAYAMGWYRQAPGKERELVAAITRRGSTYYADSVKGRFTISRDNAKNTVYLQMNSLKPEDTAVYYCNKVPLFQYSTAWYDYWGQGTQVTVSS", "polyreactivity (PSR sort gate)": "high polyreactivity"},
      {"sequence": "QVQLVESGGGLVQAGGSLRLSCAASGRIFAFYALGLYRQAPGKEREFVAAITYSGGNTNYADSVKGRFTISRDNAKNTVYLQMNSLKPEDTAVYYCAADLVYGVYYQEDYWGQGTQVTVSS", "polyreactivity (PSR sort gate)": "low polyreactivity"},
      {"sequence": "QVQLVESGGGLVQAGGSLRLSCAASGRIFAGYAMGWYRQAPGKERELVAAIRSGGSTNYADSVKGRFTISRDNAKNTVYLQMNSLKPEDTAVYYCAAETPVIPWDEMDYWGQGTQVTVSS", "polyreactivity (PSR sort gate)": "low polyreactivity"},
      {"sequence": "QVQLVESGGGLVQAGGSLRLSCAASGRIFAGYAMGWYRQAPGKERELVAAISSGGGSTYYADSVKGRFTISRDNAKNTVYLQMNSLKPEDTAVYYCARDSYPHGRARFDYWGQGTQVTVSS", "polyreactivity (PSR sort gate)": "high polyreactivity"},
      {"sequence": "QVQLVESGGGLVQAGGSLRLSCAASGRIFAGYAMGWYRQAPGKERELVAAITGTGDRTYYADSVKGRFTISRDNAKNTVYLQMNSLKPEDTAVYYCAAAYGAYYPWGYDYWGQGTQVTVSS", "polyreactivity (PSR sort gate)": "low polyreactivity"},
      {"sequence": "QVQLVESGGGLVQAGGSLRLSCAASGRIFAKNAMGWYRQAPGKERELVAAINHSGGSTYYADSVKGRFTISRDNAKNTVYLQMNSLKPEDTAVYYCAALGSGVPRYYYWGQGTQVTVSS", "polyreactivity (PSR sort gate)": "high polyreactivity"},
      {"sequence": "QVQLVESGGGLVQAGGSLRLSCAASGRIFAKNTMGWYRQAPGKERELVAAITWSSGNTDYADSVKGRFTISRDNAKNTVYLQMNSLKPEDTAVYYCNARFYYRPLRFSYDYWGQGTQVTVSS", "polyreactivity (PSR sort gate)": "high polyreactivity"},
      {"sequence": "QVQLVESGGGLVQAGGSLRLSCAASGRIFAKYAMGWYRQAPGKERELVAAISLSGGRTYYADSVKGRFTISRDNAKNTVYLQMNSLKPEDTAVYYCAAEFYPIRYYGGYDYWGQGTQVTVSS", "polyreactivity (PSR sort gate)": "low polyreactivity"},
      {"sequence": "QVQLVESGGGLVQAGGSLRLSCAASGRIFALNALGWYRQAPGKERELVATFRWSGGSTYYADSVKGRFTISRDYAKNTVYLQMNSLKPEDTAVYYCAAYSGNRRTYDYWGHGTQVTVSS", "polyreactivity (PSR sort gate)": "high polyreactivity"},
      {"sequence": "QVQLVESGGGLVQAGGSLRLSCAASGRIFALNVMGWYRQAPGKERELVAAITWSSGRTYYADSVKGRFTISRDNAKNTVYLQMNSLKPEDTAVYYCAAAFRPRAIELSYYYWGQGTQVTVSS", "polyreactivity (PSR sort gate)": "high polyreactivity"},
      {"sequence": "QVQLVESGGGLVQAGGSLRLSCAASGRIFAPYDMGWYRQAPGKERELVASITSGGSTNYTDSVKGRFTISRVNAKNTVYLQMNSLIPEDTAVYYCNTAKISEPIDPRQRVWGRTYDYWGQGTQVTVSS", "polyreactivity (PSR sort gate)": "low polyreactivity"},
      {"sequence": "QVQLVESGGGLVQAGGSLRLSCAASGRIFAQYAMGWYRQAPGKERELVAAISRSGGTTYYADSVKGRFTISRDNAKNTVYLQMNSLKPDDTAVYYCAASLRYLYYYWGQGTQVTVSS", "polyreactivity (PSR sort gate)": "high polyreactivity"},
      {"sequence": "QVQLVESGGGLVQAGGSLRLSCAASGRIFAQYAMGWYRQAPGKERELVADISSGVRTYADSVKVRFTISRDNAKNTVYLQMNSLKPEDTAVYYCNAYYIIFTRNDYWGQGTQVTVSS", "polyreactivity (PSR sort gate)": "low polyreactivity"},
      {"sequence": "QVQLVESGGGLVQAGGSLRLSCAASGRIFARNAMGWYRQAPGKERELVADITSTGSTNYADSVKGRFTISRDNAMITVYLQMNSLKPEDTAVYYCAADYYTGYVWEDYYWGQGTQVTVSS", "polyreactivity (PSR sort gate)": "low polyreactivity"},
      {"sequence": "QVQLVESGGGLVQAGGSLRLSCAASGRIFARYAMGWYRQAPGKERELVAAITKSVGSTYYADSVKGRFTISRDNAKNTVYLQMNSLKPEDTAVYYCNAVARGYGYDYWGQGTQVTVSS", "polyreactivity (PSR sort gate)": "high polyreactivity"},
      {"sequence": "QVQLVESGGGLVQAGGSLRLSCAASGRIFARYAMGWYRQAPGTERELVASITRSGGSTYYADSVKGRFTISRDNAKNTVYLQMNSLKPEDTAVYYCAARYGRVRDVIPYDYWGQGTQVTVSS", "polyreactivity (PSR sort gate)": "high polyreactivity"}
    ]}
  ]
}
